Results from the supplement of paper PMC10724198.
± gives the standard deviation of the averaged measurements.

Test system: Saccharomyces cerevisiae
Assay: protein stability index of tFT-peptide fusion (C-terminal peptide) (PSI (0-1 scale)); higher = more stable (slower turnover)
Conditions: temperature: 30 C
Description: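 MPS profiling in S. cerevisiae of the yeast C-terminome library: the last 12 aa of each annotated ORF are fused to the C-terminus of a sfGFP-mCherry timer, after a GGGS linker. Cells are FACS-sorted into 8 mCherry/sfGFP bins and deep-sequenced. PSI runs from 0 (unstable) to 1 (stable); wild type and das1Δ backgrounds, two technical replicates each.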

[1] = genetic background: das1 deletion

Sequence | protein stability index [1] | protein stability index (genetic background: wild type)
KKSKNRNTSLRP [SIP5 C-terminal 12 aa] | 0.726 ± 0.02 | 0.689 ± 0.02
KLDEAEMQGLIM [YMR158C-A C-terminal 12 aa] | 0.69 ± 0.012 | 0.724 ± 0.041
KLKRTITLPQLD [CIK1 C-terminal 12 aa] | 0.691 ± 0.022 | 0.761 ± 0.074
KLSAPIFSILHS [APT2 C-terminal 12 aa] | 0.721 ± 0.0083 | 0.504 ± 0.0051
KLTIRIKQKTHL [YOR316C-A C-terminal 12 aa] | 0.702 ± 0.012 | 0.6824 ± 0.0065
KMGQSFNAAGKF [TIM10 C-terminal 12 aa] | 0.692 ± 0.033 | 0.683 ± 0.0072
KNFKTDLSSSSL [SMK1 C-terminal 12 aa] | 0.7 ± 0.0086 | 0.711 ± 0.014
KNFYNRHTSPQL [YHL008C C-terminal 12 aa] | 0.737 ± 0.03 | 0.679 ± 0.02
KNKKNKKKGKKK [CHS5 C-terminal 12 aa] | 0.694 ± 0.048 | 0.696 ± 0.019
KNLWEKFWAAVA [LYP1 C-terminal 12 aa] | 0.693 ± 0.0092 | 0.28 ± 0.021
KNLWHHKINNLN [RAM2 C-terminal 12 aa] | 0.699 ± 0.017 | 0.166 ± 0.021
KNRFSNGRWGRR [SLD2 C-terminal 12 aa] | 0.701 ± 0.036 | 0.72 ± 0.015
KNRRRNTKKIAF [RLP24 C-terminal 12 aa] | 0.705 ± 0.03 | 0.6678 ± 0.0055
KPEEEKETLQEE [PAF1 C-terminal 12 aa] | 0.69 ± 0.046 | 0.649 ± 0.031
KPSSNNSINIKV [AHK1 C-terminal 12 aa] | 0.707 ± 0.033 | 0.743 ± 0.031
KQIVFEIPSETH [RPS7A C-terminal 12 aa] | 0.701 ± 0.013 | 0.6789 ± 0.0028
KQREKYAAVASK [SOP4 C-terminal 12 aa] | 0.692 ± 0.022 | 0.698 ± 0.043
KQSQRQVPHSIK [SPO21 C-terminal 12 aa] | 0.7194 ± 0.0004 | 0.708 ± 0.011
KQSVQQQKTGNY [YHL009W-A C-terminal 12 aa] | 0.699 ± 0.018 | 0.663 ± 0.00095
KRLGKKTVVTSR [DCC1 C-terminal 12 aa] | 0.701 ± 0.011 | 0.717 ± 0.055
KRRNWRRTKMNI [RPL39 C-terminal 12 aa] | 0.682 ± 0.017 | 0.705 ± 0.04

Sequence | protein stability index [1] | protein stability index (genetic background: wild type)
KSAKTAKASQEL [HTA2 C-terminal 12 aa] | 0.705 ± 0.017 | 0.673 ± 0.023
KSARSWVRSGRL [YPR053C C-terminal 12 aa] | 0.80266 ± 0.00042 | 0.77 ± 0.013
KSCDEDGQEDEA [TPA1 C-terminal 12 aa] | 0.693 ± 0.014 | 0.642 ± 0.011
KSDLISNIRQKI [RBH1 C-terminal 12 aa] | 0.716 ± 0.035 | 0.638 ± 0.037
KSLRSSFGKKLI [PHS1 C-terminal 12 aa] | 0.706 ± 0.052 | 0.717 ± 0.046
KTFINNVINVYH [FRM2 C-terminal 12 aa] | 0.6589 ± 0.006 | 0.674 ± 0.018
KTHTEYGYVMVA [YGR137W C-terminal 12 aa] | 0.618 ± 0.012 | 0.5401 ± 0.0042
KTSLKITHRRVI [YGL117W C-terminal 12 aa] | 0.7424 ± 0.0067 | 0.658 ± 0.0094
KVSPAAAAKKAL [RPS26B C-terminal 12 aa] | 0.684 ± 0.0089 | 0.6696 ± 0.00082
KVWVAGQQVYQI [GUD1 C-terminal 12 aa] | 0.697 ± 0.012 | 0.6639 ± 0.0028
KWGMEDSPPPYH [MDM34 C-terminal 12 aa] | 0.734 ± 0.028 | 0.6942 ± 0.0043
KYCRVPLPENNR [YEL008C-A C-terminal 12 aa] | 0.709 ± 0.015 | 0.677 ± 0.068
KYFCDFLLDPEI [ECM14 C-terminal 12 aa] | 0.741 ± 0.0083 | 0.719 ± 0.01
LANFSNEVAMNN [SWP82 C-terminal 12 aa] | 0.696 ± 0.017 | 0.738 ± 0.13
LARTDVNFMPWF [TRA1 C-terminal 12 aa] | 0.72 ± 0.0086 | 0.744 ± 0.031
LCFSKDIQLDFQ [FIG4 C-terminal 12 aa] | 0.714 ± 0.013 | 0.672 ± 0.043
LDKIKTDDTYTS [FYV7 C-terminal 12 aa] | 0.7 ± 0.024 | 0.6966 ± 0.0045
LDLQNQNKKNLW [PIN4 C-terminal 12 aa] | 0.707 ± 0.02 | 0.707 ± 0.023
LEDQDGSLYLNY [PFU1 C-terminal 12 aa] | 0.712 ± 0.011 | 0.662 ± 0.025
LEHMLEGKEQDE [PRM5 C-terminal 12 aa] | 0.707 ± 0.025 | 0.751 ± 0.036
LEHYSLSTFVCC [YAL045C C-terminal 12 aa] | 0.326 ± 0.032 | 0.3476 ± 0.0029

Sequence | protein stability index [1] | protein stability index (genetic background: wild type)
LESTHDKAIAGK [MNN2 C-terminal 12 aa] | 0.6974 ± 0.0069 | 0.684 ± 0.021
LETAFEEWDYYE [MRX6 C-terminal 12 aa] | 0.731 ± 0.016 | 0.787 ± 0.064
LFGTCLVAMLLF [SPS22 C-terminal 12 aa] | 0.461 ± 0.023 | 0.449 ± 0.022
LFMNAVIKTFKK [DGK1 C-terminal 12 aa] | 0.7 ± 0.0083 | 0.6997 ± 0.0014
LFQALKLEWEII [TEP1 C-terminal 12 aa] | 0.7038 ± 0.0018 | 0.69 ± 0.037
LGDIYTLTNNEL [PHO13 C-terminal 12 aa] | 0.701 ± 0.01 | 0.6802 ± 0.00082
LGDSPSQGRSIS [YPK2 C-terminal 12 aa] | 0.685 ± 0.012 | 0.688 ± 0.024
LGFYYIYTLHRA [ERG9 C-terminal 12 aa] | 0.505 ± 0.045 | 0.498 ± 0.03
LHPFREPAKINI [YDR048C C-terminal 12 aa] | 0.665 ± 0.024 | 0.701 ± 0.054
LIIRNLNAEKER [YFR056C C-terminal 12 aa] | 0.6974 ± 0.0041 | 0.686 ± 0.039
LITMIRFVNSQK [DCG1 C-terminal 12 aa] | 0.677 ± 0.044 | 0.673 ± 0.034
LKAVCPPEAGFD [VEL1 C-terminal 12 aa] | 0.7312 ± 0.0018 | 0.772 ± 0.019
LKIVEKIIASEQ [YLR419W C-terminal 12 aa] | 0.683 ± 0.013 | 0.711 ± 0.029
LKMDKLGNYILE [RIO2 C-terminal 12 aa] | 0.717 ± 0.027 | 0.65 ± 0.043
LKYCKRRHNTPS [GCR1 C-terminal 12 aa] | 0.747 ± 0.0077 | 0.736 ± 0.021
LLAKKKLKPNLL [YGR293C C-terminal 12 aa] | 0.714 ± 0.028 | 0.7 ± 0.04
LLASCIETTRNK [LOT6 C-terminal 12 aa] | 0.691 ± 0.008 | 0.667 ± 0.027
LLEDIRANYSLN [YLL056C C-terminal 12 aa] | 0.681 ± 0.012 | 0.692 ± 0.028
LLGFTTGKEVHL [SMF2 C-terminal 12 aa] | 0.6939 ± 0.0046 | 0.701 ± 0.014
LLLSAFLRNLVP [YAL016C-A C-terminal 12 aa] | 0.685 ± 0.026 | 0.375 ± 0.0073
LLRKLSMKRPFS [APL1 C-terminal 12 aa] | 0.683 ± 0.016 | 0.682 ± 0.047

Sequence | protein stability index [1] | protein stability index (genetic background: wild type)
LNIGGNLVTPLC [YSH1 C-terminal 12 aa] | 0.719 ± 0.011 | 0.671 ± 0.037
LNNKDTKSVRHA [BRR6 C-terminal 12 aa] | 0.667 ± 0.029 | 0.711 ± 0.026
LPFSVEPTTSRM [YFR036W-A C-terminal 12 aa] | 0.6999 ± 0.0065 | 0.687 ± 0.017
LPGINSIFKNIF [TOD6 C-terminal 12 aa] | 0.774 ± 0.016 | 0.722 ± 0.063
LPLKLTRKVHDR [RIF2 C-terminal 12 aa] | 0.705 ± 0.05 | 0.713 ± 0.012
LPSINTIFKDML [DOT6 C-terminal 12 aa] | 0.702 ± 0.03 | 0.731 ± 0.059
LQEPDRDNDDSG [NTC20 C-terminal 12 aa] | 0.701 ± 0.013 | 0.7 ± 0.017
LQLFVNLGCPLS [YDR455C C-terminal 12 aa] | 0.727 ± 0.028 | 0.683 ± 0.019
LQNNDVTIGFAK [MUD1 C-terminal 12 aa] | 0.715 ± 0.0077 | 0.655 ± 0.02
LQPDVPPSSGRS [KEX2 C-terminal 12 aa] | 0.695 ± 0.033 | 0.703 ± 0.011
LQPWEGRLYLLK [IMA5 C-terminal 12 aa] | 0.698 ± 0.048 | 0.693 ± 0.063
LRFEEMNSDLVQ [ROG1 C-terminal 12 aa] | 0.705 ± 0.0096 | 0.747 ± 0.12
LRRSFAIYTLGH [MCM2 C-terminal 12 aa] | 0.647 ± 0.027 | 0.6562 ± 0.0043
LRVEWSKPKVKE [TIF35 C-terminal 12 aa] | 0.699 ± 0.015 | 0.711 ± 0.044
LSDDEEEEEEEE [RIX1 C-terminal 12 aa] | 0.648 ± 0.048 | 0.645 ± 0.033
LSEEDLLDDESS [YPF1 C-terminal 12 aa] | 0.669 ± 0.042 | 0.698 ± 0.0078
LSGAPQVTKKQN [POM33 C-terminal 12 aa] | 0.691 ± 0.013 | 0.674 ± 0.016
LSHAQKEIYEFK [UTP25 C-terminal 12 aa] | 0.687 ± 0.011 | 0.691 ± 0.056
LSQFSNVRYLLQ [VPS70 C-terminal 12 aa] | 0.7367 ± 0.0022 | 0.545 ± 0.0054
